Data on ten molecules can be found in US20240117029A1 (Hoffmann-La Roche, published 2024).

Experiment [1] concerns the target T1, human CCL2 (MCP1) - wild type (wt) (human, UniProt P13500 24-99).
T1 construct: Entry is without signal peptide; Made in-house or bought from R&D Systems (279-MC), depending on the assay; monomer-dimer equilibrium; also called wt human CCL2; hCCL2
Nature of the experiment: SPR Biacore T200, 37 C, antibody captured, CCL2 as analyte, 1:1 model. On the technique in general: SPR reads the build-up and loss of mass on a sensor chip optically.

Experiment [2] concerns the target T2, human CCL2 (MCP1) - P8A variant (human, UniProt P13500 24-99).
T2 construct: Entry is without signal peptide; P8A prevents dimer formation (pure monomer); made in-house; also called monomeric human CCL2; monomeric CCL2
The experiment is described as above.

The target of experiment [3] is T1, human CCL2 (MCP1) - wild type (wt). Nature of the experiment: cell-based or functional assay.

B1: 2F6 (antibody, V domains shown)
VH: QSLEESGGGLVQPEGSLTLTCTASGFSFNNNYYMCWVRQAPGKGLEWIGCISTDDSNTHYASWAQGRFTISKASSTALTLQVAGLTVADMATYFCARDAHFTSYGYGFDLWGPGTLVTVSS
VL: DIVMTQTPASVSAAVGGTVSINCRASEDIENLVAWYQQKPGQPPKLLIYQASKLASGVPSRFKGSGSGAEFTLTIGDLESADAATYYCQGDYGSGWIMYSFGGGTDLVVK
notes: Generated as IgG1 wild type and IgG1 PGLALA with kappa light chain; also called CCL2-0014
On to B1, for which the figures for the “T½” value in experiment [1] and in experiment [2] were 0.867 h and 0.783 h, respectively.

B2: 1A5 (antibody, V domains shown)
VH: QEQLVESGGDLVKPEGSLTLTCTASGFSFSTSYWMCWVRQAPGKGLELIACISSSIGVTYYASWAEGRFTISKTSSTTVTLQMTSLTVADTATYFCARTTDDNWNVGFNLWGPGTLVTVSS
VL: AYDMTQTPASVEVGVGGTVTIKCQASQSIGNRYLSWYQQKPGQPPKLLIYGTSTLASGVSSRFKGSGSGTQFTLTISGVESADSATYYCQQGATISYLDNAFGGGTEVVVK
notes: Generated as IgG1 wild type and IgG1 PGLALA with kappa light chain; also called CCL2-0009
On to B2, for which the results for the “T½” value in experiment [1] and in experiment [2] were 2.67 h and 2.28 h, respectively.

B3: 1G9 (antibody, V domains shown)
VH: QSLEESGGDLVKPGASLTLTCKASGIDFSLYSYMCWVRQAPGKGLEWIACVDAGASGSTYYASWAKGRFTISKTSSTTVTLQMTSLTAADTATYFCARGILYYTWPYPAGAIDAFDSWGPGTLVTVSS
VL: AYDMTQTPASVSEPVGGTVTIKCQASESISNYLSWYQQKPGQPPKLLIYKASTLASGVPSRFKGSGSGTEYTVTISGVQSDDAATYYCQQSYSSSNVFNTFGGGTEVVVK
notes: Generated as IgG1 wild type and IgG1 PGLALA with kappa light chain; also called CCL2-0010
Turning to B3, the entries for the “T½” value in experiment [1] and in experiment [2] were 2.95 h and 3.63 h, respectively.

B4: CKLO02 IgG1 (bispecific antibody)
heavy 1: not shown
heavy 2: not shown
light 1: QVQLVQSGAEVKKPGSSVKVSCKASGLTISHTYMHWVRQAPGQGLEWMGRIDPDNHNTKFDPKFQGRVTITADTSTSTAYMELSSLRSEDTAVYYCARGVFGFFEHWGQGTTVTVSSASVAAPSVFIFPPSDEQLKSGTASVVCLLNNFYPREAKVQWKVDNALQSGNSQESVTEQDSKDSTYSLSSTLTLSKADYEKHKVYACEVTHQGLSSPVTKSFNRGEC
light 2: EIVLTQSPATLSLSPGERATLSCRASQHVSDAYLAWYQQKPGQAPRLLIYDASDRAEGVPARFSGSGSGTDFTLTISSLEPEDFAVYYCHQYIHLHSFTFGQGTKVEIKRTVAAPSVFIFPPSDRKLKSGTASVVCLLNNFYPREAKVQWKVDNALQSGNSQESVTEQDSKDSTYSLSSTLTLSKADYEKHKVYACEVTHQGLSSPVTKSFNRGEC
B4: the “IC50, inhibition of THP-1 migration towards recombinant huCCL2” value (shortened to “IC50, inhibition”) in experiment [3] was 0.2 µg/mL.

B5: CKLO2-GG01 (bispecific antibody)
heavy 1: DIQMTQSPSSLSASVGDRVTITCKAFEDIYNRRAWYQQKPGKAPKLLIHGATSLEHGVPSRFSGSGSGTDYTLTISSLQPEDFATYYCQQFWSAPYTFGGGTKVEIKSSASTKGPSVFPLAPSSKSTSGGTAALGCLVKDYFPEPVTVSWNSGALTSGVHTFPAVLQSSGLYSLSSVVTVPSSSLGTQTYICNVNHKPSNTKVDKKVEPKSCDKTHTCPPCPAPEYLGGDSVFLFPPKPKDVLMISRTPEVTCVVIDVSHEDPEVKFNWYVDGVEVHNAKTKPREEQYNSTYRVVSVLPVLHRDWLNGKEYKCKVSNKALPKPIEKTISKAKGQRREPQVYTLPPCRDELTKNQVSLWCLVKGFYPSDIAVEWESNGQPENNYKTTPPVLDSDGSFFLYSKLTVDKSRWQQGNVFSCSVMHEALHAHYTRKELSLSP
heavy 2: not shown
light 1: QVQLVQSGAEVKKPGSSVKVSCKASGLTISHTYMHWVRQAPGQGLEWMGRIDPDNHNTKFDPKFQGRVTITADTSTSTAYMELSSLRSEDTAVYYCARGVFGFFEHWGQGTTVTVSSASVAAPSVFIFPPSDEQLKSGTASVVCLLNNFYPREAKVQWKVDNALQSGNSQESVTEQDSKDSTYSLSSTLTLSKADYEKHKVYACEVTHQGLSSPVTKSFNRGEC
light 2: EIVLTQSPATLSLSPGERATLSCRASQHVSDAYLAWYQQKPGQAPRLLIYDASDRAEGVPARFSGSGSGTDFTLTISSLEPEDFAVYYCHQYIHLHSFTFGQGTKVEIKRTVAAPSVFIFPPSDRKLKSGTASVVCLLNNFYPREAKVQWKVDNALQSGNSQESVTEQDSKDSTYSLSSTLTLSKADYEKHKVYACEVTHQGLSSPVTKSFNRGEC
For the molecule B5, in experiment [3], the “IC50, inhibition” value amounted to 0.2 µg/mL.

B6: CKLO2-SG1095 (bispecific antibody)
heavy 1: DIQMTQSPSSLSASVGDRVTITCKAFEDIYNRRAWYQQKPGKAPKLLIHGATSLEHGVPSRFSGSGSGTDYTLTISSLQPEDFATYYCQQFWSAPYTFGGGTKVEIKSSASTKGPSVFPLAPSSKSTSGGTAALGCLVKDYFPEPVTVSWNSGALTSGVHTFPAVLQSSGLYSLSSVVTVPSSSLGTQTYICNVNHKPSNTKVDKKVEPKSCDKTHTCPPCPAPELWNGPSVFLFPPKPKDTLMISRTPEVTCVVVDVSDEDPEVKFNWYVDGVEVHNAKTKPREELYNSTYRVVSVLTVLHRDWLNGKEYKCKVSNTALPKPIEKTISKAKGQRREPQVYTLPPCRDELTKNQVSLWCLVKGFYPSDIAVEWESNGQPENNYKTTPPVLDSDGSFFLYSKLTVDKSRWQQGNVFSCSVMHEALHAHYTRKELSLSP
heavy 2: not shown
light 1: QVQLVQSGAEVKKPGSSVKVSCKASGLTISHTYMHWVRQAPGQGLEWMGRIDPDNHNTKFDPKFQGRVTITADTSTSTAYMELSSLRSEDTAVYYCARGVFGFFEHWGQGTTVTVSSASVAAPSVFIFPPSDEQLKSGTASVVCLLNNFYPREAKVQWKVDNALQSGNSQESVTEQDSKDSTYSLSSTLTLSKADYEKHKVYACEVTHQGLSSPVTKSFNRGEC
light 2: EIVLTQSPATLSLSPGERATLSCRASQHVSDAYLAWYQQKPGQAPRLLIYDASDRAEGVPARFSGSGSGTDFTLTISSLEPEDFAVYYCHQYIHLHSFTFGQGTKVEIKRTVAAPSVFIFPPSDRKLKSGTASVVCLLNNFYPREAKVQWKVDNALQSGNSQESVTEQDSKDSTYSLSSTLTLSKADYEKHKVYACEVTHQGLSSPVTKSFNRGEC
Take B6: the “IC50, inhibition” value in experiment [3] was 0.2 µg/mL.

B7: CKLO2-GG02 (bispecific antibody)
heavy 1: DIQMTQSPSSLSASVGDRVTITCKAFEDIYNRRAWYQQKPGKAPKLLIHGATSLEHGVPSRFSGSGSGTDYTLTISSLQPEDFATYYCQQFWSAPYTFGGGTKVEIKSSASTKGPSVFPLAPSSKSTSGGTAALGCLVKDYFPEPVTVSWNSGALTSGVHTFPAVLQSSGLYSLSSVVTVPSSSLGTQTYICNVNHKPSNTKVDKKVEPKSCDKTHTCPPCPAPEYLGGDSVFLFPPKPKDVLMISRTPEVTCVVIDVSHEDPEVKFNWYVDGVEVHNAKTKPREEQYNSTYRVVSVLPVLHRDWLNGKEYKCKVSNKALPKPIEKTISKAKGQRREPQVYTLPPCRDELTKNQVSLWCLVKGFYPSDIAVEWESNGQPENNYKTTPPVLDSDGSFFLYSKLTVDKSRWQQGNVFSCSVLHEALHAHTTRKELSLSP
heavy 2: not shown
light 1: QVQLVQSGAEVKKPGSSVKVSCKASGLTISHTYMHWVRQAPGQGLEWMGRIDPDNHNTKFDPKFQGRVTITADTSTSTAYMELSSLRSEDTAVYYCARGVFGFFEHWGQGTTVTVSSASVAAPSVFIFPPSDEQLKSGTASVVCLLNNFYPREAKVQWKVDNALQSGNSQESVTEQDSKDSTYSLSSTLTLSKADYEKHKVYACEVTHQGLSSPVTKSFNRGEC
light 2: EIVLTQSPATLSLSPGERATLSCRASQHVSDAYLAWYQQKPGQAPRLLIYDASDRAEGVPARFSGSGSGTDFTLTISSLEPEDFAVYYCHQYIHLHSFTFGQGTKVEIKRTVAAPSVFIFPPSDRKLKSGTASVVCLLNNFYPREAKVQWKVDNALQSGNSQESVTEQDSKDSTYSLSSTLTLSKADYEKHKVYACEVTHQGLSSPVTKSFNRGEC
With B7, the “IC50, inhibition” value in experiment [3] was determined as 0.2 µg/mL.

B8: CKLO2-GG03/GG04 (bispecific antibody)
heavy 1: DIQMTQSPSSLSASVGDRVTITCKAFEDIYNRRAWYQQKPGKAPKLLIHGATSLEHGVPSRFSGSGSGTDYTLTISSLQPEDFATYYCQQFWSAPYTFGGGTKVEIKSSASTKGPSVFPLAPSSKSTSGGTAALGCLVKDYFPEPVTVSWNSGALTSGVHTFPAVLQSSGLYSLSSVVTVPSSSLGTQTYICNVNHKPSNTKVDKKVEPKSCDKTHTCPPCPAPEYLGGDSVFLFPPKPKDVLMISRTPEVTCVVIDVSHEDPEVKFNWYVDGVEVHNAKTKPREEQYNSTYRVVSVLPVLHRDWLNGKEYKCKVSNKALPKPIEKTISKAKGQRREPQVYTLPPCREEMTKNQVSLWCLVKGFYPSDIAVEWESNGQPENNYKTTPPVLDSDGSFFLYSKLTVDKSRWQQGNVFSCSVMHEALHAHYTRKELSLSP
heavy 2: not shown
light 1: QVQLVQSGAEVKKPGSSVKVSCKASGLTISHTYMHWVRQAPGQGLEWMGRIDPDNHNTKFDPKFQGRVTITADTSTSTAYMELSSLRSEDTAVYYCARGVFGFFEHWGQGTTVTVSSASVAAPSVFIFPPSDEQLKSGTASVVCLLNNFYPREAKVQWKVDNALQSGNSQESVTEQDSKDSTYSLSSTLTLSKADYEKHKVYACEVTHQGLSSPVTKSFNRGEC
light 2: EIVLTQSPATLSLSPGERATLSCRASQHVSDAYLAWYQQKPGQAPRLLIYDASDRAEGVPARFSGSGSGTDFTLTISSLEPEDFAVYYCHQYIHLHSFTFGQGTKVEIKRTVAAPSVFIFPPSDRKLKSGTASVVCLLNNFYPREAKVQWKVDNALQSGNSQESVTEQDSKDSTYSLSSTLTLSKADYEKHKVYACEVTHQGLSSPVTKSFNRGEC
Regarding B8, in experiment [3], the “IC50, inhibition” value amounted to 0.3 µg/mL.

B9: murine 11K2 (antibody, V domains shown)
VH: EVQLQQSGAELVKAGASVKLSCPASGLNIKDTYMHWVKQRPEQGLEWIGRIDPANGNTKFDPKFQGKATITADTSSNTAYLQLSSLTSEDTAVYYCARGVFGFFDYWGQGTTLTVSS
VL: DIQMTQSSSSFSVSLGDRVTITCKATEDIYNRLAWYQQKPGSAPRLLISGATSLETGVPSRFSGSGSGKDYTLSITSLQTEDVATYYCQQFWSAPYTFGGGTKLEIK
notes: also called 11K2m; X-0048
Turning to B9, the “T½” value in experiment [1] came out at 0.317 h; in experiment [2] it was 8.63 h.

B10: 1A4 (antibody, V domains shown)
VH: QSLEESGGDLVKPGASLTLTCTASELDFYWICWVRQAPGKGLEWIACIGAGSSGSTYYASWAKGRFTVSKTSSTTVTLQMTSLTAADTATYFCARTGTEFTYYSLWGPGTLVTVSS
VL: ALVMTQTPSSVSAAVGGTVTINCQASQSVYNNNMAWYQQKPGQPPKLLIYTASSLASGVPSHFRGSGSGTQFTLTISDLESDDAATYYCAGYKSYSNDEYGFGGGTEVVVK
notes: also called CCL2-0008
Take B10: the “T½” value was 1.67 h in experiment [1] and 2.9 h in experiment [2].
